Tests used:
[1] = tested on: CAGA-reporter cells (i.e F89 or 1613); assay: Toxic-compound control wells of the automated high throughput transcriptional screen; format: cell-based, human; conditions: 500 μM CPO in the presence of TGFβ
[2] = tested on: human PAI-1 promoter (PAI-1-Luc, clone 1613); assay: Human PAI-1-Luc firefly luciferase reporter, stable clone 1613; conditions: for relative firefly luciferase activities (fold induction): value 1 = absence of TGFβ
Experimental: (§2) Thus, the renilla luciferase activity can be used as an internal toxicity control.
(§3) At day 1, 40 (96 well-) microplates are seeded, using a multidrop apparatus, with CAGA-reporter cells (i.e F89 or 1613) at a concentration of 35000 cells per well in 200 μl of serum-containing medium.
(§4) 8 to 24 hours later (Day 2), microplates containing the chemical compounds to be tested, diluted in 100% DMSO, are placed in a carousel and the cell-incubation procedure is launched. The computer system coordinates then the actions of different peripheric equipments in order to incubate the cells in the presence of TGFβ with the coumpounds to be tested.
(§5) Cells and compounds microplates are moved through the robotic line to the adequate peripheries by the axial rotatable arm. Cells are washed and incubated in a serum-free medium. The pippetage station realizes different operations including preliminary dilutions in order to incubate the cells with TGFβ and the chemical compounds to be tested. The final concentration of TGFβ (rhTGFβ-1 from R & D) used in the test is 1 ng/mL and the compounds are tested at a final concentration of 10 μl in a final concentration of DMSO of 1%. Cells are incubated with the compounds to be tested 15-30 mn prior the addition of TGFβ. The final volume of the test reaction is 150 μl. Wells A1 through H10 are the test wells and contain cells incubated with the chemical agents to be tested in the presence of TGFβ. Each well contains only one singular chemical compound and allows to test its effect on CAGA-mediated transcription. Columns 11 and 12 are kept for controls. Column 11 contains 8 wells where cells are incubated in the presence of TGFβ without chemical compounds. Column 11 determines of the reference TGFβ-induced firefly luciferase value to which will be compared the values measured in the test wells to identify potential inhibitor or activator coumpounds. In wells A12 to D12, cells are grown in medium without TGFβ. The firefly luciferase value obtained with these points represents the ‘basal firefly luciferase activity’ and allows to control that the TGFβ induction is correct. In wells E12 to H12, cells are incubated in the presence of TGFβ with 500 μM CPO (Cyclopentenone, Sigma) which is a cell toxic compound. […] These points allows to control that the test is sensitive to toxic compounds.
(§6) 12 to 18 hours later (day 3), the luciferase quantification procedure is launched. The following reactions are realized using reagents of the Dual Luciferase Assay Kit from Promega. Cells are washed and lysed with the addition of 10 μl of passive lysis buffer (Promega). After 15 to 30 mn of agitation, luciferase activities of the plates are read in a dual-injector luminometer (BMG lumistar).

[3] = tested on: renilla luciferase driven by the RSV LTR, clone 1613; assay: Renilla luciferase specificity/toxicity control (pRc/Renilla), clone 1613; conditions: for relative renilla luciferase activities (fold induction): value 1 = absence of TGFβ
Source text: (§1) The expression of this transgene should not be regulated by TGFβ or activin, i.e. it should not contain CAGA sequences in its regulatory regions. For instance, the renilla-luciferase gene can be transcribed from the RSV (Rous Sarcoma Virus) promoter or SV (Simian Virus 40) promoter. […] This means that an agent acting specifically through CAGA boxes-mediated transcription will have an effect on the firefly luciferase activity but not on the renilla luciferase activity.

[4] = tested on: renilla luciferase driven by the RSV LTR, clone F89; assay: Renilla luciferase specificity/toxicity control (pRc/Renilla), clone F89; conditions: for relative renilla luciferase activities (fold induction): value 1 = absence of TGFβ
Source text: as §1

[5] = tested on: CAGA box-mediated transcription ((CAGA)9MLP-Luc, clone F89); assay: TGFβ-responsive (CAGA)9MLP-Luc firefly luciferase reporter, stable clone F89; conditions: for relative firefly luciferase activities (fold induction): value 1 = absence of TGFβ
Experimental: as §2, §3, §4, §5, §6

[6] = tested on: CAGA box reporter vector in HepG2 cells
Experimental: (§7) FIG. 1C: HepG2 and Mv1Lu cells were transfected with p3TP-Lux or a vector containing nine or twelve copies of the CAGA box upstream of the minimal Adenovirus Major Late Promoter (MLP). Fold inductions by TGFβ are given for HepG2 cells.
(§8) FIG. 3B: HepG2 cells were transfected with a (CAGA)12-MLP-Luc reporter construct and induced by BMP-7, activin or TGFβ (respectively 100 ng/mL, 20 ng/mL and 10 ng/mL).
(§9) HepG2 and MDA-MB468 cells were transiently transfected, with the indicated constructs and the internal control pRL-TK vector, using the calcium phosphate co-precipitation method. When increasing amounts of expression vectors were transfected, total DNA was kept constant by addition of pCMV5. Cells were serum starved for 8 h before stimulation with 7 ng/mL of human recombinant TGFβ1 (R&D) and luciferases activities were quantified 14 h later using the Dual Luciferase Assay (Promega). For activin and BMP-7 (Creative Biomolecules) induction, respectively 20 ng/mL and 100 ng/mL were used. Values were normalized with the renilla luciferase activity expressed from pRL-TK. […] Luciferase values shown in figures are representative of transfection experiments done at least three times.

[7] = tested on: CAGA box reporter vector in HepG2 cells; assay: Transient CAGA boxes-MLP-Luc reporter in HepG2 cells; conditions: (CAGA)12-MLP-Luc, TGFβ 10 ng/mL
Experimental: as §7, §8, §9

## O=C1C=CCC1 [CPO, Cyclopentenone]
[1]
  firefly luciferase activity relative to TGFβ-only wells: around 50%
  renilla luciferase activity relative to TGFβ-only wells: around 50%

## CCOc1cc(/C=C(\C#N)C(N)=O)cc(CSc2ccccc2)c1O [Compound A, α-cyano4-hydroxy-3-ethoxy-5-phenylthiomethyl cinnamamide]
[2]; compound A 0.1 μM
  firefly luciferase activity (value 100 = absence of compound A, 1 ng/mL TGFβ): 105
[2]; compound A 1 μM
  firefly luciferase activity (value 100 = absence of compound A, 1 ng/mL TGFβ): 102
[2]; compound A 5 μM
  firefly luciferase activity (value 100 = absence of compound A, 1 ng/mL TGFβ): 65
[2]; compound A 10 μM
  firefly luciferase activity (value 100 = absence of compound A, 1 ng/mL TGFβ): 36
[3]; specificity/toxicity control
  inhibitory effect on the renilla luciferase activities: not on the renilla luciferase activities
[4]; specificity/toxicity control
  inhibitory effect on the renilla luciferase activities: not on the renilla luciferase activities
[5]; compound A 0.1 μM
  firefly luciferase activity (value 100 = absence of compound A, 1 ng/mL TGFβ): 98
[5]; compound A 1 μM
  firefly luciferase activity (value 100 = absence of compound A, 1 ng/mL TGFβ): 95
[5]; compound A 5 μM
  firefly luciferase activity (value 100 = absence of compound A, 1 ng/mL TGFβ): 86
[5]; compound A 10 μM
  firefly luciferase activity (value 100 = absence of compound A, 1 ng/mL TGFβ): 23

## TGFβ: human recombinant TGFβ1 (R&D), cytokine used to induce CAGA box-mediated transcription
[2]; TGFβ 0.2 ng/mL
  relative firefly luciferase activities (fold induction): 8 fold induction
[2]; TGFβ 1 ng/mL
  relative firefly luciferase activities (fold induction): 26.2 fold induction
[2]; TGFβ 5 ng/mL
  relative firefly luciferase activities (fold induction): 43.5 fold induction
[2]; TGFβ 10 ng/mL
  relative firefly luciferase activities (fold induction): 50.1 fold induction
[6]
  TGFβ-mediated fold induction: Several hundred
[3]; TGFβ 0.2 ng/mL
  relative renilla luciferase activities (fold induction): 0.8 fold induction
[3]; TGFβ 1 ng/mL
  relative renilla luciferase activities (fold induction): 1 fold induction
[3]; TGFβ 5 ng/mL
  relative renilla luciferase activities (fold induction): 1 fold induction
[3]; TGFβ 10 ng/mL
  relative renilla luciferase activities (fold induction): 1.3 fold induction
[4]; TGFβ 0.2 ng/mL
  relative renilla luciferase activities (fold induction): 1.1 fold induction
[4]; TGFβ 0.5 ng/mL
  relative renilla luciferase activities (fold induction): 1.1 fold induction
[4]; TGFβ 1 ng/mL
  relative renilla luciferase activities (fold induction): 1.2 fold induction
[4]; TGFβ 5 ng/mL
  relative renilla luciferase activities (fold induction): 1.5 fold induction
[4]; TGFβ 10 ng/mL
  relative renilla luciferase activities (fold induction): 1.8 fold induction
[7]
  fold induction of CAGA boxes containing reporter: 200 fold
[5]; TGFβ 0.2 ng/mL
  relative firefly luciferase activities (fold induction): 6 fold induction
[5]; TGFβ 0.5 ng/mL
  relative firefly luciferase activities (fold induction): 31 fold induction
[5]; TGFβ 1 ng/mL
  relative firefly luciferase activities (fold induction): 109 fold induction
[5]; TGFβ 5 ng/mL
  relative firefly luciferase activities (fold induction): 461 fold induction
[5]; TGFβ 10 ng/mL
  relative firefly luciferase activities (fold induction): 737 fold induction

From patent publication US20030207263A1, “Method of screening therapeutic agents” (priority 1998, published 2003)
